Source: patent US20100210517A1 (RAPTOR PHARMACEUTICAL, published 2010)

Key:
[1] = biological target: T1, LRP1 CR3-5 (human); assay: solid-phase binding assay, CR protein coated on plate, anti-RAP detection
T1 construct: range 852-973; also called L1 CR3-5

[2] = biological target: T2, LRP2 CR89 (human, UniProt P98164 1025-1102); assay: as above
T2 construct: domain: CR89; also called YVWR; L2 CR89; not shown: N-terminal hexahistidine and S-peptide tags of pET30(+)a

[3] = biological target: T3, VLDLR CR6-8 (human, UniProt P98155 235-358); assay: as above
T3 construct: range 235-358; also called V CR6-8; not shown: N-terminal hexahistidine and S-peptide tags of pET30(+)a

[4] = biological target: T4, LRP2 CR89 R1088D (human, UniProt P98164 1022-1105); assay: solid-phase assay on coated CR protein, anti-RAP detection, A450
T4 construct: also called YVWD
Procedure: (§1) Solid phase binding assays-Purified, refolded CR protein (1 μg) was bound to Nunc Maxisorp™ 96-well plates in TBS pH 8 supplemented with 5 mM CaCl₂ (TBSC) overnight at 4° C. Wells were washed with TBSC and then blocked with TBSC containing 2% bovine serum albumin (BSA). […] Control wells contained no added ligand. As an additional control, to determine whether the absence of calcium affected binding, 10 mM EGTA was included in the incubation medium for some samples. […] Excess primary antibody was removed and wells washed before incubation with the secondary antibody, HRP-conjugated goat anti rabbit IgG (Bio-Rad). After washing, TMB substrate solutions (Bio-Rad) were added to detect HRP. Color development was stopped with 1N HCl. Absorption at 450 nm was measured with a microplate spectrophotometer (Molecular Devices). Data were plotted and Kd values derived by non-linear regression with the assumption of single-site binding (GraphPad Prism).
(§2) To test this idea, mutant LRP2 CR89 were prepared in which the native, non-canonical residues at these positions were sequentially substituted with the non-native, canonical residues. As defined above, the A, C, A′, C′ string for LRP2 CR89 is YVWR. Mutants included LRP2 CR89 Y1042W (WVWR), LRP2 CR89 V1047D (YDWR), LRP2 CR89 R1088D (YVWD), LRP2 CR89 V1047D R1088D (YDWD), LRP2 CR89 Y1042W V1047D R1088D (WDWD), LRP2 CR89 Y1042W V1047D (WDWR), LRP2 CR89 Y1042W R1088D (WVWD).

[5] = biological target: T1, LRP1 CR3-5; assay: solid-phase assay on coated CR protein, single-site non-linear fit
Procedure: Data were plotted and fitted by non-linear regression with the assumption of a single binding site (GraphPad Prism). Kd values with standard deviations were derived from the regression analysis.
as §1

[6] = biological target: T5, LRP2 CR2728 (human, UniProt P98164 3552-3631); assay: solid-phase assay on coated CR protein, each ligand at 80 nM, blank-corrected absorbance
T5 construct: domain: CR2728; Its cloning is not described in the methods; not shown: N-terminal hexahistidine and S-peptide tags of pET30(+)a
T5 sequence (looked up): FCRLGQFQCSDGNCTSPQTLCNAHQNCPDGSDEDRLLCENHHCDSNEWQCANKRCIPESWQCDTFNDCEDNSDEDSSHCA
Procedure: (§3) Samples were tested twice, in duplicate, and values combined. Means and standard deviations were then calculated. Blank values obtained from wells incubated in the absence of ligand were used to correct absorbance data.
as §1

[7] = biological target: T6, LRP2 CR3031 (human, UniProt P98164 3677-3755); assay: as above
T6 construct: domain: CR3031; Its cloning is not described in the methods; not shown: N-terminal hexahistidine and S-peptide tags of pET30(+)a
T6 sequence (P98164 3677-3755): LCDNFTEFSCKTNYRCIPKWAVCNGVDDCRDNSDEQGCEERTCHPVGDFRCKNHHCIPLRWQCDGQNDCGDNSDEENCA
Procedure: as §3, §1

[8] = biological target: T7, MAT CR12 (human, UniProt Q9Y5Y6 452-524); assay: as above
T7 construct: also called ST14 CR12; matriptase CR12
T7 sequence: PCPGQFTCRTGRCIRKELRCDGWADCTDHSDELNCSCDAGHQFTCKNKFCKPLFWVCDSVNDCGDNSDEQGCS
Procedure: as §3, §1

[9] = biological target: T1, LRP1 CR3-5; assay: solid-phase assay; OD at the highest ligand concentration as percent of the highest OD of all ligands
Procedure: as §1

[10] = biological target: T2, LRP2 CR89; assay: as above
Procedure: as §1

[11] = biological target: T2, LRP2 CR89; assay: as above; remark: listed apart in the source
Procedure: as §1, §2

[12] = biological target: T8, LRP2 CR89 V1047D (human, UniProt P98164 1022-1105); assay: as above
T8 construct: also called YDWR
T8 sequence: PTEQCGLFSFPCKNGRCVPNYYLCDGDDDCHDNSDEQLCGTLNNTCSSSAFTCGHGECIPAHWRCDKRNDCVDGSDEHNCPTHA
Procedure: as §1, §2

[13] = biological target: T4, LRP2 CR89 R1088D; assay: as above
Procedure: as §1, §2

[14] = biological target: T9, LRP2 CR89 V1047D R1088D (human, UniProt P98164 1022-1105); assay: as above
T9 construct: also called YDWD
T9 sequence: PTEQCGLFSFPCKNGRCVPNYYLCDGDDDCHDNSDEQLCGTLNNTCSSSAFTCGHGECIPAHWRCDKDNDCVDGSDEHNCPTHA
Procedure: as §1, §2

[15] = biological target: T10, LRP2 CR89 Y1042W V1047D R1088D (human, UniProt P98164 1022-1105); assay: as above
T10 construct: also called WDWD
T10 chain: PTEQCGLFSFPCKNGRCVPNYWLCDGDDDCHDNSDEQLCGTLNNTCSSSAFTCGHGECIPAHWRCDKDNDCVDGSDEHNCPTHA
Procedure: as §1, §2

[16] = biological target: T11, LRP2 CR89 Y1042W V1047D (human, UniProt P98164 1022-1105); assay: as above
T11 construct: also called WDWR
T11 chain: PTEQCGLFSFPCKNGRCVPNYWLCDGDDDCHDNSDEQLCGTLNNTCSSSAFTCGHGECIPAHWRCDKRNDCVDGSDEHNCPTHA
Procedure: as §1, §2

[17] = biological target: T12, LRP2 CR89 Y1042W R1088D (human, UniProt P98164 1022-1105); assay: as above
T12 construct: also called WVWD
T12 chain: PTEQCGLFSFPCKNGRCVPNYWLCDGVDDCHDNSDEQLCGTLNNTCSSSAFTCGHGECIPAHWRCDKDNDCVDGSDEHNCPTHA
Procedure: as §1, §2

[18] = biological target: T1, LRP1 CR3-5; assay: apparent Kd of the variant for the CR pair used in selection; no unit printed in Table 4, nM per Table 2 and paragraph 292

T2 sequence (P98164 1025-1102): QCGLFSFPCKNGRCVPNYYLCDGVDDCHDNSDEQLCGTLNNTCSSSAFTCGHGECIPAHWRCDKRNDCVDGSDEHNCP
T1 sequence (Q07954 852-973): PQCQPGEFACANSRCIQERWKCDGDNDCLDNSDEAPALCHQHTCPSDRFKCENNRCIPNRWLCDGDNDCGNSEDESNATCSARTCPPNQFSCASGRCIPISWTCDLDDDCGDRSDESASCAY

B1: RAP d3 (wild-type domain 3 of human RAP, amino acids 201-319 of mature RAP) (ligand)
chain: LDRLRRVSHQGYSTEAEFEEPRVIDLWDLEQSANLTDKELEAFREELKHFEAKIEKHNHYQKQLEIAHEKLRHAESVGDGERVSRSREKHALLEGRTKELGYTVKKHLQDLSGRISRAR
notes: Expressed in E. coli from pET30(+)a, Ni-NTA purified; also called wild-type RAP d3; recombinant RAP d3; not shown: N-terminal hexahistidine and S-peptide tags of pET30(+)a
Kd [1]: 11 nM
Kd [2]: > 300 nM
Kd [3]: > 300 nM
binding result [4]: no binding (tested: 100 nM)
Kd [5]: 16 nM
binding result [6]: no binding (tested: 80 nM)
binding result [7]: no binding (tested: 80 nM)
binding result [8]: no binding (tested: 80 nM)
% max [9]: 76%
% max [10]: 5%
% max bind [11]: 7%
% max bind [12]: 6%
% max bind [13]: 7%
% max bind [14]: 6%
% max bind [15]: 15%
% max bind [16]: 11%
% max bind [17]: 16%
Kd [18]: 16 nM
